Results published in patent publication US20230203142A1 (published 2023).

T1: NDPK-A peptide 5 (human)
T1 peptide: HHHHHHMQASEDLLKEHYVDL

T2: NDPK-A peptide 6 (human)
T2 peptide: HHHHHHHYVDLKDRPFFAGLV

T3: NDPK-A peptide 7 (human)
T3 peptide: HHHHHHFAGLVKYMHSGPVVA

T4: NDPK-A peptide 9 (human)
T4 peptide: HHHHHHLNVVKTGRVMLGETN

T5: NDPK-A peptide 10 (human)
T5 peptide: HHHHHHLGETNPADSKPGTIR

T6: NDPK-A peptide 11 (human)
T6 peptide: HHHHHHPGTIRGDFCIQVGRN

T7: NDPK-A peptide 12 (human)
T7 peptide: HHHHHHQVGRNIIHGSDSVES

T8: NDPK-A peptide 13 (human)
T8 peptide: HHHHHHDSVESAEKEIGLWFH

T9: NDPK-A peptide 14 (human)
T9 peptide: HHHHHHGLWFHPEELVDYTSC

T10: NDPK-A peptide 15 (human)
T10 peptide: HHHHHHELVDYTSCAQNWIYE

T11: NDPK-A peptide 1 (human)
T11 peptide: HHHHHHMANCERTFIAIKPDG

T12: NDPK-A peptide 4 (human)
T12 peptide: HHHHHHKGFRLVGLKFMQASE

T13: NDPK-A peptide 8 (human)
T13 peptide: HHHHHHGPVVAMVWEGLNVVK

T14: NDPK-A peptide 2 (human)
T14 peptide: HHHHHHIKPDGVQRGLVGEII

T15: NDPK-A peptide 3 (human)
T15 peptide: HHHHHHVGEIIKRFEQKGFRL


Tests used:
[1] = molecular target: T16, human ADK (adenosine kinase), recombinant (human, UniProt P55263 2-362); assay: MST, ADK labelled, antibody unlabelled
T16 construct: Bought protein (Novus Biologicals NBP1-44382 or R&D Systems 8024-AK-025); It was fluorescently labelled in MST
T16 sequence (P55263 2-362 limits assumed): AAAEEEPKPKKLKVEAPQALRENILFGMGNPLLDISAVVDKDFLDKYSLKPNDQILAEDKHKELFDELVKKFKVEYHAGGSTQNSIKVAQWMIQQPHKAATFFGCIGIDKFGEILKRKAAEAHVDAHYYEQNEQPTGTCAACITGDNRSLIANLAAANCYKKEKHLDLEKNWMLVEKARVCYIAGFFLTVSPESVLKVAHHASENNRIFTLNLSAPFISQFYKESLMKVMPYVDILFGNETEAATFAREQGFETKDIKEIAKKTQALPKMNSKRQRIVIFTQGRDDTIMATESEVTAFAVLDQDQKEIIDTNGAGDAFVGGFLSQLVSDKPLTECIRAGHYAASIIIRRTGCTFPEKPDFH
Description: To perform this technique, proteins were desalted and buffer exchanged into PBS prior to labeling. Desalting was performed using Zeba Spin Desalting Columns (Thermo Scientific, product number 89882, 0.5 ml volume) in a volume of 0.1 ml according to the manufacturer's instructions. Human NDPK-A (Acro Biosystems, product number NM1-H5147) was prepared in PBS to a stock concentration of 0.4 mg/ml. Human ADK (Novus Biologicals, product number NBP1-44382 or R&D Systems, product number 8024-AK-025) was purchased at a stock concentration of 0.5 mg/ml and buffer exchanged into PBS. Protein concentration used for labeling was 20 uM. Experiments were conducted independently with each of NDPK and ADK labeled with each kit (i.e., experiments were performed with lysine-labeled, cysteine-labeled, and His-labeled versions of each protein to confirm the site of labeling was not influencing detected interaction). Labeling kits were: Monolith Protein Labeling Kit RED-NETS (Amine Reactive; Product number MO-L001), Monolith Protein Labeling Kit RED-MALEIMIDE (Cysteine Reactive; Product number: MO-L004), and Monolith His-Tag Labeling Kit RED-tris-NTA (Product number: MO-L008). […] Concentration of labeled proteins ranged from 12 nM to 20 nM, as determined by MST quantification to obtain a fluorescence intensity of ˜350 from each capillary tube. […]

[2] = molecular target: T17, human NDPK-A (nucleoside diphosphate kinase A), full-length recombinant (human, UniProt P15531 2-152); assay: MST, NDPK labelled, antibody unlabelled
T17 construct: Bought protein (Acro Biosystems NM1-H5147); It was fluorescently labelled (lysine, cysteine or His-tag dye) in MST; also called nm23
T17 sequence (P15531 other isoform, or with tags, fused parts or gaps limits assumed): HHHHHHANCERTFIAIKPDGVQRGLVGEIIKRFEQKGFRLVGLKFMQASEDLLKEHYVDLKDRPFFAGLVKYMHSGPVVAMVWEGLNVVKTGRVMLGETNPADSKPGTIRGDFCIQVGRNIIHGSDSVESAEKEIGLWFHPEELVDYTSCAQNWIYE
Description: (§1) Human NDPK-A (Acro Biosystems, product number NM1-H5147) was prepared in PBS to a stock concentration of 0.4 mg/ml. Human ADK (Novus Biologicals, product number NBP1-44382 or R&D Systems, product number 8024-AK-025) was purchased at a stock concentration of 0.5 mg/ml and buffer exchanged into PBS. Protein concentration used for labeling was 20 uM. Experiments were conducted independently with each of NDPK and ADK labeled with each kit (i.e., experiments were performed with lysine-labeled, cysteine-labeled, and His-labeled versions of each protein to confirm the site of labeling was not influencing detected interaction). […] Concentration of labeled proteins ranged from 12 nM to 20 nM, as determined by MST quantification to obtain a fluorescence intensity of ˜350 from each capillary tube. […]
(§2) To further confirm the formation of the proposed complex, GST-tagged NDPK (GST-NDPK) was generated and immunoprecipitation experiments were performed to investigate the interaction of each proposed component with NDPK. Interaction between all three components of the proposed complex, as well as with the complex and a-Ab (FIG. 4M) were readily identified.

[3] = molecular target: T1, NDPK-A peptide 5; assay: MST, His-tag-labelled peptide against a-Ab
[4] = molecular target: T2, NDPK-A peptide 6; assay: MST, His-tag-labelled peptide against a-Ab
[5] = molecular target: T3, NDPK-A peptide 7; assay: MST, His-tag-labelled peptide against a-Ab
[6] = molecular target: T4, NDPK-A peptide 9; assay: MST, His-tag-labelled peptide against a-Ab
[7] = molecular target: T5, NDPK-A peptide 10; assay: MST, His-tag-labelled peptide against a-Ab
[8] = molecular target: T6, NDPK-A peptide 11; assay: MST, His-tag-labelled peptide against a-Ab
[9] = molecular target: T7, NDPK-A peptide 12; assay: MST, His-tag-labelled peptide against a-Ab
[10] = molecular target: T8, NDPK-A peptide 13; assay: MST, His-tag-labelled peptide against a-Ab
[11] = molecular target: T9, NDPK-A peptide 14; assay: MST, His-tag-labelled peptide against a-Ab
[12] = molecular target: T10, NDPK-A peptide 15; assay: MST, His-tag-labelled peptide against a-Ab
[13] = molecular target: T11, NDPK-A peptide 1; assay: MST, His-tag-labelled peptide against a-Ab
[14] = molecular target: T12, NDPK-A peptide 4; assay: MST, His-tag-labelled peptide against a-Ab
[15] = molecular target: T13, NDPK-A peptide 8; assay: MST, His-tagged peptide; column head prints 'Binding Affinity (Ka)'
[16] = molecular target: T14, NDPK-A peptide 2; assay: as above
[17] = molecular target: T15, NDPK-A peptide 3; assay: as above
[18] = molecular target: T17, human NDPK-A (nucleoside diphosphate …); assay: MST, His-tagged full-length NDPK-A; column head prints 'Binding Affinity (Ka)'
[19] = molecular target: T17, human NDPK-A (nucleoside diphosphate …); assay: MST, NDPK labelled, FABP4 unlabelled
Description: as §1, §2

[20] = molecular target: T16, human ADK (adenosine kinase), …; assay: MST, one-to-one recombinant proteins, ADK labelled
Description: Additionally, one-to-one recombinant protein interaction assays were performed using Microscale Thermophoresis (MST) to independently validate the interactions between each of the proposed complex components. MST is a technology for the interaction analysis of biomolecules. MST is the directed movement of particles in a microscopic temperature gradient. Any change of the hydration shell of biomolecules due to changes in their structure/conformation results in a relative change of the movement along the temperature gradient and is used to determine binding affinities. MST allows measurement of interactions directly in solution without the need of immobilization to a surface (immobilization-free technology).
To perform this technique, proteins were desalted and buffer exchanged into PBS prior to labeling. […] Experiments were conducted independently with each of NDPK and ADK labeled with each kit (i.e., experiments were performed with lysine-labeled, cysteine-labeled, and His-labeled versions of each protein to confirm the site of labeling was not influencing detected interaction). […] Concentration of labeled proteins ranged from 12 nM to 20 nM, as determined by MST quantification to obtain a fluorescence intensity of ˜350 from each capillary tube. […]

Kd [1] [nM] | Kd [2] [nM] | binding result [3] | binding result [4] | binding result [5] | binding result [6] | binding result [7] | binding result [8] | binding result [9] | binding result [10] | binding result [11] | binding result [12] | binding result [13] | binding result [14] | Kd [15] [nM] | Kd [16] [nM] | Kd [17] [nM] | Kd [18] [nM] | Kd [19] [nM] | Kd [20] [nM] | Binder
~1900 | ~150 | no binding | no binding | no binding | no binding | no binding | no binding | no binding | no binding | no binding | no binding | no binding | no binding | 69.6 | 15900 | 8980 | 116 |  |  | CA33 (a-Ab) monoclonal antibody (antibody, Described as a monoclonal antibody; also called active antibody) heavy: QSVEESGGRLVTPGTPLTLTCTVSGFSLSTYYMSWVRQAPGKGLEWIGIIYPSGSTYCASWAKGRFTISKASTTVDLKITSPTTEDTATYFCARPDNDGTSGYLSGFGLWGQGLVTVSSAKTTPPSVYPLAPGSAAQTNSMVTLGCLVKGYFPEPVTVTWNSGSLSSGVHTFPAVLQSDLYTLSSSVTVPSSTWPSETVTCNVAHPASSTKVDKKIVPRDC light: DVVMTQTPASVSEPVGGTVTIKCGASEDISRYLVWYQQKPGQPPKRLIYKASTLASGVPSRFKGSGSGTDFTLTISDLECDDAATYYCQCTYGTYAGSFFYSFGGGTEVVVERTDAAPTVSIFPPSSEQLTSGGASVVCFLNNFYPKDINVKWKIDGSERQNGVLNSWTDQDSKDCTYSMSSTLTLTKDEYERHNSYTCEATHKTSTSPIVKSFNRNEC
 |  |  |  |  |  |  |  |  |  |  |  |  |  |  |  |  |  | ~700 | ~7 | recombinant human FABP4 (fatty acid binding protein 4) (other, Recombinant human FABP4 produced in-house; also called aP2; hormonal FABP4) CDAFVGTWKLVSSENFDDYMKEVGVGFATRKVAGMAKPNMIISVNGDVITIKSESTFKNTEISFILGQEFDEVTADDRKVKSTITLDGGVLVHVQKWDGKSTTIKRKREDDKLVVECVMKGVTSTRVYERA
